Source: article PMC3814370, “Functional assignment of KEOPS/EKC complex subunits in the biosynthesis of the universal t^6A tRNA modification” (Nucleic Acids Research, 2013)

B1: Bud32–Cgi121 binary complex from Pyrococcus abyssi (complex)
chain 1: MKLIKQGAEAKIYLAEFSELYFDYPIKVIVKERIKKRYRIPEIDLKLRKERTIREARILRRAKEFGVNVPYVFEVDTKNMIIVMEYIEGERLKELLEKLPMEERLKVCREVGRQIGKLHEAGIVHGDLTTSNMILREGKVYFIDFGLAEFDDTIEAQGVDLHLLKRAMESTHYKWFERGFEEVLKGYIEIRGEDKGREIREKIREIELRGRYRERSWITQ
chain 2: MTPKFKNFKHDNSGQVETYLFEVISKYTMLEIKTKFGKLCIAKVKLASESIERALNLCNDNCQIVSAKCHEEVIFATILAIKAFSSGRNTAKTIKGEILLRLAGVKQIKDAIKIIGARKGENLIIYFGVSDPCSSLKDFISSLGLREEPLKPCDEDEVKRGFERAAIIEAL
B2: Pcc1–Kae1 binary complex from Pyrococcus abyssi (complex)
chain 1: MKPKRVQGKIVIEFPSEDIAEVVYTSVLYEHVSVPYRRSRVNFRREGRRIVLEIEANDSSAMRGTVNSYLRWIKVALDVLNI
chain 2: MLALGIEGTAHTLGIGIVSEDKVLANVFDTLTTEKGGIHPKEAAEHHARLMKPLLRKALSEAGVSLDDIDVIAFSQGPGLGPALRVVATAARALAVKYRKPIVGVNHCIAHVEITKMFGVKDPVGLYVSGGNTQVLALEGGRYRVFGETLDIGIGNAIDVFARELGLGFPGGPKVEKLAEKGEKYIELPYAVKGMDLSFSGLLTEAIRKYRSGKYRVEDLAYSFQETAFAALVEVTERAVAHTEKDEVVLVGGVAANNRLREMLRIMTEDRGIKFFVPPYDLCRDNGAMIAYTGLRMYKAGISFRLEETIVKQKFRTDEVEIVW
notes: Pcc1, Pyrococcus abyssi; Kae1, Pyrococcus abyssi; Written as the unit of one Pcc1 and one Kae1 (predicted 45 kDa); Its dimerisation is a row of the complex with itself; also called PK; Kae1–Pcc1; source: E. coli Rosetta2 (DE3) pLysS, co-expressed, purified (heat 65°C, Ni-NTA, Superdex 200)

Legend:
[1] = target: B2; assay: cell-based or functional assay
[2] = target: the molecule itself; assay: SEC; gel filtration of purified proteins and complexes on Superdex 200 in storage buffer (LBs); apparent molecular mass (Supplementary Figure S2)

With B1 the “t^6A synthesis (14C-L-threonine incorporated into tRNA) by an equimolar mix of the two binary complexes, relative to PaKEOPS” value [1] was roughly 80%.

In the case of B2, the “stoichiometry N” value [2] is reported as 2.
